{"source": "paper PMC12173945", "about": "“Import mechanism of peroxisomal proteins with an N-terminal signal sequence” (Nature Cell Biology, 2025)", "molecules": {"B1": {"name": "PEX7–GFP: PEX7 fused at the C terminus to a linker (SGSG) followed by mEGFP (protein)", "chain": "MLRYHMQGFSGYGVQYSPFFDNRLAVAAGSNFGLVGNGKLFILEIDRSGRIVEVNSFLTQDCLFDLAWNESHENQVLVAQGDGTLRLFDTTFKEFPIAIFKEHEREVFSCNWNLVNRQNFLSSSWDGSIKIWSPLRKQSLMTLTPRPLEITKMVDPLNAIILKKKSFTGISKNRNCVYQAQFSPHDQNLVLSCSGNSYASLFDIRLPSGKNQNNFLVHSGLEALTCDFNKYRPYVVATGGVDNAIRIWDIRMLNKNESATIKRTVPGQLHNSSCINEIPNAHGLAIRKVTWSPHHSNILMSASYDMTCRIWRDLSNDGAKETYKTNSTDATKGSIFNFTQHSEFVFGADWSLWGKPGYVASTAWDGNLFVWNGLG", "modifications": "left off: GST, N-terminal, cleaved | GFP, C-terminal, kept"}, "B2": {"name": "PEX7: full-length PEX7 from S. cerevisiae (GenBank accession no. NP_010426.1) (protein)", "chain": "B1 chain", "modifications": "left off: GST, N-terminal, cleaved"}}, "key": {"[1]": {"test_system": "YG hydrogel (wild-type YG-domain polypeptide of PEX13)", "test": "YG hydrogel permeation assay, wild-type hydrogel (Fig. 2, Fig. 3g, Extended Data Fig. 9d)", "settings": "wild-type hydrogel", "protocol": "A solution of the purified wild-type YG-domain polypeptide (or the variant lacking the KPWE motif) was concentrated to 2 mM in 50 mM HEPES·NaOH pH 7.8 at RT, 2 M urea and 2 mM TCEP. Aliquots of 2 µl were then spotted on the bottom of multiple wells of a 96-well glass-bottomed plate (Cellvis, P96-1.5H-N), which was then sealed with a gas-impermeable AlumaSeal II film (Hampton Research, HR8-069) to prevent desiccation and incubated at RT for 24 h. Before each assay, the resulting gels were equilibrated overnight at RT in a 100-fold excess of Assay Buffer (25 mM HEPES·NaOH pH 7.8 at RT, 150 mM NaCl and 1 mM TCEP). A 0.5 µM solution of fluorescently labelled protein in Assay Buffer was then added to the samples, with or without additional components at the concentrations indicated in the text, and incubated at RT. Gels were imaged at the times indicated in the text using a Nikon A1R point-scanning confocal system consisting of an inverted Nikon Eclipse Ti microscope and a Nikon ×20 0.75 NA Plan Apo air objective. The objective was centred on the gel edge and focus was maintained 5 µm above the glass surface using the Nikon Perfect Focus System. Fluorescence was excited through a 405/488/561/647 quad-band dichroic (Chroma), using a 488-nm solid-state laser (Coherent) and a galvano scanner. A 50-nm emission band was collected on a gallium arsenide phosphide detector, using an ET525/50m (525 ± 25 nm) single-band bandpass filter (Chroma) and a pinhole dilated to 0.9 Airy units. Images were acquired using the Nikon NIS-Elements software with a pixel size of 1 µm and a 12-bit digitizer. Imaging parameters were configured to maximize the SNR while avoiding saturation. All samples intended to be compared were imaged using identical acquisition settings.\n(§1) For the YG hydrogel permeation assay, images were first oriented such that each gel edge faced the same direction. Fluorescence profiles across the buffer–gel interface were then generated by centering a 60 × 300 µm rectangular area on the gel edge and then measuring the mean fluorescence at each position within this selection. To express the resulting values in terms of fold enrichment, the fluorescence at each position along the selection was normalized to the average fluorescence in the buffer and plotted in terms of the distance from the gel edge.\nTo calculate permeation rates through the YG hydrogel, a 60 × 300 µm rectangular area was first centred on the gel edge. The resulting region was then thresholded to demarcate the permeation zone (that is, the distance traversed by the fluorescent species) from the buffer and non-permeated part of the gel. The width of the area above the threshold was then measured and plotted as a function of time. A linear fit to the data yielded the permeation rate."}, "[2]": {"test_system": "peroxisomes in Xenopus egg extract", "test": "Peroxisomal protein import assay in Xenopus egg extract", "type": "biochemical, Xenopus laevis", "settings": "GFP fusion, 1 h", "protocol": "Import reactions were performed exactly as described in a previously published protocol. Briefly, extract was mixed with 500 nM of the indicated cargo and 100 nM of the indicated receptor variants with or without 100 nM PEX7, and incubated at 24 °C. Where stated, endogenous PEX5 was first depleted from the extract using agarose beads covalently conjugated to the high-affinity PEX5-binding domain from PEX14. Recombinant proteins were diluted in XBHS buffer (40 mM HEPES·KOH pH 7.7 at RT, 100 mM KCl, 1 mM MgCl2, 0.1 mM CaCl2 and 250 mM sucrose) before being added to the reactions. For imaging, an aliquot of each reaction was sandwiched between two 22 × 22 mm no. […] The samples were illuminated by an 80-mW solid-state 488-nm laser through a Di01-T405/488/568/647 dichroic (Semrock), and fluorescence was collected through a Nikon ×100 1.45 NA Plan Apo Lambda oil-immersion objective and a green-emission ET525/50 m (525 ± 25 nm) single-band bandpass filter (Chroma). […]\nTo calculate import rates in Xenopus egg extract, images were first thresholded to identify peroxisomes that were within the focal plane. A circular area with a diameter of 3 pixels was then centred on each local maximum and the mean fluorescence within this area was measured; the average fluorescence in the cytosol was then subtracted from the measured values. […]"}, "[3]": {"test_system": "YG hydrogel (∆KPWE YG-domain polypeptide of PEX13)", "test": "YG hydrogel permeation assay, hydrogel lacking the KPWE motif (Fig. 3g)", "settings": "1 h", "protocol": "A solution of the purified wild-type YG-domain polypeptide (or the variant lacking the KPWE motif) was concentrated to 2 mM in 50 mM HEPES·NaOH pH 7.8 at RT, 2 M urea and 2 mM TCEP. Aliquots of 2 µl were then spotted on the bottom of multiple wells of a 96-well glass-bottomed plate (Cellvis, P96-1.5H-N), which was then sealed with a gas-impermeable AlumaSeal II film (Hampton Research, HR8-069) to prevent desiccation and incubated at RT for 24 h. Before each assay, the resulting gels were equilibrated overnight at RT in a 100-fold excess of Assay Buffer (25 mM HEPES·NaOH pH 7.8 at RT, 150 mM NaCl and 1 mM TCEP). […] Fluorescence was excited through a 405/488/561/647 quad-band dichroic (Chroma), using a 488-nm solid-state laser (Coherent) and a galvano scanner. […]\nas §1"}}}
{"molecule": "B1", "values": [{"measurement": "Entry into YG hydrogel", "setting": "[1]", "result": "readily entered the phase"}, {"measurement": "Import into peroxisomes in Xenopus egg extract", "setting": "[2]", "result": "enters peroxisomes only when it is assembled into a complex with PEX5 and cargo"}]}
{"molecule": "B2", "values": [{"measurement": "Entry into YG hydrogel lacking the KPWE motif", "setting": "[3]", "result": "some entry of PEX7 into YG hydrogels was observed in the absence of the KPWE motif"}]}
